Source: patent US5352587A, “Compositions and methods for the synthesis of natriuretic protein receptor B and methods of use” (Genentech, Inc., priority 1991, dated 1994)
Ends that are not written are not given here.

Columns and labels:
[1] = biological target: T1, NPRB lacking its kinase and guanylyl cyclase domains (BDKC) (Homo sapiens, UniProt P20594); assay: Scatchard analysis of binding to 293 cells expressing NPRB less the kinase and cyclase domains (BDKC); details: two hours at room temperature (21° C.), LIGAND program, read-out: dissociation constant (Kd)
T1 construct: expressed in transfected cells
T1 sequence (P20594 23-501): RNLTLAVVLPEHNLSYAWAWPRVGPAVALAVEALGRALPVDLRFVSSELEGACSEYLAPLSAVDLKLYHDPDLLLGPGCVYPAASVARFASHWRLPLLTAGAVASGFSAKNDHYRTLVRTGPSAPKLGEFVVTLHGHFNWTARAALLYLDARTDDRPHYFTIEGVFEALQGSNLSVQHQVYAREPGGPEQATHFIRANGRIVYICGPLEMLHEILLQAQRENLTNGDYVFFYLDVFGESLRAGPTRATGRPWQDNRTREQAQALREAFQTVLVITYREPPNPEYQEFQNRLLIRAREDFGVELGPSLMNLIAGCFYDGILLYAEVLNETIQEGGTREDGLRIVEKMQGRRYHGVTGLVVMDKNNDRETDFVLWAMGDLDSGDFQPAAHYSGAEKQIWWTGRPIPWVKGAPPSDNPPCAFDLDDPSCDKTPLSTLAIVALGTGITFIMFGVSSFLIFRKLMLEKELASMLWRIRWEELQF
Excerpt: Scatchard analysis was used to determine the binding affinities of the natriuretic peptides for NPRB. An expression vector using pRK was constructed such that the NPRB lacked its kinase and guanylyl cyclase domains. This mutation was effected by introduction of a termination codon at condo 480 of the mature NPRB protein. A recombinant cell line expressing NPRB less the kinase and cyclase domains (BDKC) was developed by calcium phosphate transfection of 293 cells as described above. These stable cell lines were screened for expression of BDKC by binding of porcine BNP which contained 26 amino acids (^125 l-pBNP[26]). […] Binding was allowed to proceed to equilibrium by incubation for two hours at room temperature (21° C.), the bound ^125 l-pBNP(26) was separated from unbound by centrifugation for 7 minutes at 4° C. The supernatant was aspirated and the cell pellet was counted in a gamma counter for ^125 l quantitation. Background binding was subtracted from total binding to give specific binding and the specific binding vs. dose of ^125 l-pBNA data was analyzed by the LIGAND program of Munson and Rodbard (Analytical Biochemistry 107, 220-239 [1980]). The results shown are in FIG. 5.

[2] = tested on: soluble NPRB; assay: Binding to soluble NPRB extracellular domain (1-433) in concentrated conditioned medium; set-up: species or system human
Description: Soluble extracellular domain of NPRB was engineered by introducing a translation termination codon at position 434 to produce the 1-433 fragment of the NPRB sequence illustrated in FIG. 1. A stable cell line was developed in 293 cells as described for 293NPRBDKC, and clones were screened by binding of ^125 lBNP to receptor in condition medium. Control 293 cells or the stable cell line 293BCF.15 (NPRB cell free) were plated 24 hours prior to the addition of serum free conditioned medium. Medium was left on the cells for 72 hours then collected for analysis of the […] synthesized. The media was vacuum filtered through a […] filter (Millipore Corp) then concentrated 8-fold by ultrafiltration on an Amicon Corp centriprep YM30 membrane. A 0.5 ml sample of concentrated conditioned media was incubated for one hour in the presence of 0.25 mCi of ^125 l-pBNP(26) (2462 Ci/mmole) with (background binding) or without (total binding) 1.2 mM pBNP(26). A 1.0 ml sample of activated charcoal solution (Fuller et al. J. Biol. Chem. 264, 14179-14184 [1989]) was added to absorb unbound label and recovered by centrifugation. The supernatant (1.4 ml) was removed for determination of ^125 l-pBNP bound to receptor by gamma counting. Specific binding was calculated from the difference between total binding minus background binding. […]

[3] = biological target: T2, NPRB (Homo sapiens, UniProt P20594); assay: Specific binding to COS-7 cells transfected with pRK-NPRB; details: Table 2, 0.5 nM, room temperature, 1 hr
T2 construct: whole cells or solubilized membranes
T2 sequence (P20594 23-1047): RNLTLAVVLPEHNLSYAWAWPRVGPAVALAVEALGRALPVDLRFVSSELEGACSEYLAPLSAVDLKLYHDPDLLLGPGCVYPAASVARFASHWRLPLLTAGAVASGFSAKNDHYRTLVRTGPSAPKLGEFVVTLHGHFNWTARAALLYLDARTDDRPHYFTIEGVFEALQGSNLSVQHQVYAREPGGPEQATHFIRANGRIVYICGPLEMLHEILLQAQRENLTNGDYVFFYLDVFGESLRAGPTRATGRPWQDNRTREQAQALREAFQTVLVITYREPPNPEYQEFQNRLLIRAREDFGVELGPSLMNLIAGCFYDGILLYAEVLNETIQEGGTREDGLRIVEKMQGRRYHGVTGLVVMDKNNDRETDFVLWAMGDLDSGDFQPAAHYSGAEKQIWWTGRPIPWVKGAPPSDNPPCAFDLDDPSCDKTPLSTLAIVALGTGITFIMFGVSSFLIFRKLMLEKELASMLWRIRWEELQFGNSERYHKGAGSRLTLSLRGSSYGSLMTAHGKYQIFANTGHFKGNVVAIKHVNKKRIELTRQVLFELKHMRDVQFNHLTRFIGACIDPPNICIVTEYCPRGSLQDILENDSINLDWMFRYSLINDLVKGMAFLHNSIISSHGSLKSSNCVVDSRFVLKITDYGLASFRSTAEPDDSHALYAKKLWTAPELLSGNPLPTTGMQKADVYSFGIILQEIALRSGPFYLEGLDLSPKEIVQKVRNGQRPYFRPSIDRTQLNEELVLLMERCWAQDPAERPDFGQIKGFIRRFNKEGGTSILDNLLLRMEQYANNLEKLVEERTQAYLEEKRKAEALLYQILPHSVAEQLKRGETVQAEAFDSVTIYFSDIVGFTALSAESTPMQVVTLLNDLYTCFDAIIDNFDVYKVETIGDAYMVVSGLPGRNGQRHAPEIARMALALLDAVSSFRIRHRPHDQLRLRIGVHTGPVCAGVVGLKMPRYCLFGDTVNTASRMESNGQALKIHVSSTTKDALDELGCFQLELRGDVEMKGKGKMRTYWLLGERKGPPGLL
Description: (§1) To examine the biochemical properties of the NPRB receptor, we constructed an expression vector in which the coding sequence was placed under the transcriptional control of the cytomegalovirus immediate-early promoter (Table 2). […] The NPRB expression vector was transfected into COS-2 cells in a transient expression assay and the detergent solubilized guanylyl cyclase activity of a membrane fraction was measured (Table 2). […] Specific binding of [^125 l]-human ANP (ANP) and [^125 l]-porcine BNP (pBNP) to transfected cells was determined in the presence of absence of unlabeled peptides.
(§2) COS-7 cells maintained in Dulbecco's modified Eagles' medium (DMEM) supplemented with 10% fetal calf serum were seeded at 5×10^6 cells per 100 mm plate (GC assay) or 1×10^5 per 35 mm plate (binding assay). Twelve house later, cells were transfected with control vector^5 (1 mg/ml) using DEAE-dextran.
(§3) Following the incubation, cells were rinsed with cold PBS, and dissolved in 2 ml of 0.2M NaOH and radioactivity was measured in gamma counter. All measurements were in triplicate. […] Specific binding in table 2 was calculated by subtracting the background binding from the total binding.

[4] = biological target: T3, NPRA (Homo sapiens, UniProt P16066); assay: Specific binding to COS-7 cells transfected with pRK-NPRA; details: Table 2, 0.5 nM, room temperature, 1 hr
T3 construct: whole cells or solubilized membranes
T3 sequence (P16066 33-1061): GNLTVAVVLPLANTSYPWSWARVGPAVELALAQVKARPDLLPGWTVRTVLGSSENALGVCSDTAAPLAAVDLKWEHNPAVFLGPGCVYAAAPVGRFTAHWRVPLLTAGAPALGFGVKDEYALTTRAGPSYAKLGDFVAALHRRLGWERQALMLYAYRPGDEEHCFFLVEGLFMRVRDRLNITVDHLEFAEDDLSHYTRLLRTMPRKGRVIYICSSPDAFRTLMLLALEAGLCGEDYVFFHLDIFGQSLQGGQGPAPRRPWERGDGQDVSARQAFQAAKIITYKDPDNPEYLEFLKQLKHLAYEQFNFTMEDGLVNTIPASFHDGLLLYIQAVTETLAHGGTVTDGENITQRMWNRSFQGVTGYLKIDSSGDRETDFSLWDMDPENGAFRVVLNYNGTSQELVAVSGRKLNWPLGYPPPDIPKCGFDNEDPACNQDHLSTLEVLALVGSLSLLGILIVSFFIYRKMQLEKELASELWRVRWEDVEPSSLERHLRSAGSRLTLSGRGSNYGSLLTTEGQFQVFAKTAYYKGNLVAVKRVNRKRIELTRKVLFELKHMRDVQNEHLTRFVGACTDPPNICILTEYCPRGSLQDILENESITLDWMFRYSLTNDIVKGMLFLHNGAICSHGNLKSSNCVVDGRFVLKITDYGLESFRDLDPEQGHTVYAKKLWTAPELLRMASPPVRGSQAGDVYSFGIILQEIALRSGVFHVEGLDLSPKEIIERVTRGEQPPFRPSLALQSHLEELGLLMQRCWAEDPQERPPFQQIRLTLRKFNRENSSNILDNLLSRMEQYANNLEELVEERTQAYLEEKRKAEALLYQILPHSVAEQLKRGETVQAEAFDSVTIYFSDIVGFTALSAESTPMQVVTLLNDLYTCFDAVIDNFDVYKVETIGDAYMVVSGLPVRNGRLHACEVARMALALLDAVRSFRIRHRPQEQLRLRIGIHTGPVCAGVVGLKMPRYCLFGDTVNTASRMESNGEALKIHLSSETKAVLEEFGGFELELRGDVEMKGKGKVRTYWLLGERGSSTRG
Description: as §1, §2, §3

[5] = biological target: 130 kDa ANP receptor-GC from adrenal glomerulosa; details: literature refs 10, 11; cited from earlier work
[6] = tested on: active site of protein kinases; details: literature refs 12, 13; cited from earlier work
[7] = biological target: T2, NPRB; assay: Transient expression whole-cell stimulation of cGMP production, NPRB-transfected COS-7 cells; assay type: cell-based
Description: Ligand-dependent activation of the cytoplasmic guanylyl cyclase (GC) domains of the human NPRB and NPRA receptors was examined in transient expression whole-cell stimulation assays. In FIG. 3, the natriuretic peptide stimulation of cGMP production is shown. COS-7 cells transfected with pRK (control; pane C), human NPRA expression vector^5 (panel A), or human NPRB receptor expression vector (panel B) were either not treated (panel C) or stimulated with 500 nM porcine BNP (BNP) or human ANP (ANP) for 5 minutes. Results are expressed as the mean amount of cGMP (pmoles) per culture±standard deviation for 3 independent determinations.
The COS-7 cells were seeded at a density of 1×10^6 cells per well in a 60 mm plate with high glucose DMEM plus 10% heat inactivated dialyzed calf serum and maintained for 12 hours at 37° C. in 7%, 93% air. […] of plasmid DNA was transfected with […] of DEAE-dextran in 2 ml of high glucose DMEM±10% Nuserum (Gibco) for 4 hours. Cells were shocked with 20% glycerol in PBS for 1 minute, fresh medium was added and cells were maintained for 72 hours prior to stimulation. Non-treated cultures were incubated at 37° C. in DMEM with 25 mM Hepes pH 7.2, […] IBMX at 37° C. for 10 minutes, medium was aspirated and 6% trichloroacetic acid (TCA) was added. Stimulated samples were treated for an additional 5 minutes in the presence of 500 nM peptide before TCA treatment. Samples were frozen at -20° C. for 1 hr, thawed at room temperature, and cell debris was removed by centrifugation at 2500 xg for 10 minutes. Samples were extracted once with 4 volumes of water-saturated ether, briefly evaporated and assayed for cGMP as described in Table 2.

^125 l-pBNP(26): porcine BNP which contained 26 amino acids, ^125 l labelled (DSGCFGRRLDRIGSLSGLGCNVLRRY; ends and bridges not checked; also: 125I label, position not given here; UniProt P07634 106-131, looked up)
Kd [1]: 0.0667 nM
Specific binding to soluble NPRB ([2]; 0.25 mCi ^125 l-pBNP(26), one hour, 8-fold concentrated conditioned medium): 31,837 cpm
Specific binding due to the recombinant soluble receptor protein (difference from control 293 cells) ([2]; difference between soluble NPRB and control 293 cells): 29,177 cpm

[^125 l]-pBNP: [^125 l]-porcine BNP (600 Ci/mmol) (DSGCFGRRLDRIGSLSGLGCNVLRRY; ends and bridges not checked; also: 125I label, position not given here; UniProt P07634 106-131, looked up)
Specific Binding of [^125 l]-pBNP [3]: 3,643 ± 26 cpm
Specific Binding of [^125 l]-pBNP [4]: 5,721 ± 1107 cpm

N=C(N)NC(=O)c1nc(Cl)c(N)nc1N [amiloride]
effect on receptor conformation and Kd for ANP [5]: change in receptor conformation and a lowering of the Kd for ANP
inhibition of ATP binding to the active site of protein kinases [6]: competitive inhibitor of ATP binding to the active site of protein kinases

pBNP: porcine BNP (brain natriuretic peptide) (DSGCFGRRLDRIGSLSGLGCNVLRRY; ends and bridges not checked; cysteine pairing not given here; UniProt P07634 106-131, looked up)
fold increase in cGMP over control transfected cells ([7]; NPRB, 500 nM peptide, 5 minutes): 9.7 fold
fold more effective than ANP in the activation of NPRB GC activity ([7]; NPRB, 500 nM peptide, 5 minutes, versus ANP): 6.4 fold
activation of NPRB receptor (in words) ([7]; pBNP as compared to human ANP): preferentially activated

[^125 l]-ANP: [^125 l]-human ANP (1800 Ci/mmole, Amersham)
Specific Binding of [^125 l]-ANP [3]: 10,694 ± 1412 cpm
